The values below come from PMC7516004, “RICE CENTRORADIALIS 1, a TFL1-like Gene, Responses to Drought Stress and Regulates Rice Flowering Transition”.

One data set has as its target T1, OSBZ8 (Oryza sativa, UniProt Q40645 1-360).
T1 sequence: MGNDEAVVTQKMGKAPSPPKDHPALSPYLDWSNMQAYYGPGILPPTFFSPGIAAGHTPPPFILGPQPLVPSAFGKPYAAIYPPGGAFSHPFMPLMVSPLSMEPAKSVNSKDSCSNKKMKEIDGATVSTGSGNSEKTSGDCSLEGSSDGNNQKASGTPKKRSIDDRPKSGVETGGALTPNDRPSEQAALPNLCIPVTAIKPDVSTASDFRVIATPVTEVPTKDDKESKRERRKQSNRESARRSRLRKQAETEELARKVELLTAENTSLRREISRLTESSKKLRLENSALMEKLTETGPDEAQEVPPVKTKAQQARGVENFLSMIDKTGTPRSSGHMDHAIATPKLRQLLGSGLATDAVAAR
The experiment in a line: EMSA; Chemiluminescent Nucleic Acid Detection Module Kit (Thermo) per manufacturer; binding buffer, salt, pH and temperature not stated. The note with it: protein: recombinant; tags: His (pCold vector); chain copies: 2; label: biotin.

The target of a further data set is T2, TRAB1 (Oryza sativa, UniProt Q6ZDF3 1-374).
T2 sequence: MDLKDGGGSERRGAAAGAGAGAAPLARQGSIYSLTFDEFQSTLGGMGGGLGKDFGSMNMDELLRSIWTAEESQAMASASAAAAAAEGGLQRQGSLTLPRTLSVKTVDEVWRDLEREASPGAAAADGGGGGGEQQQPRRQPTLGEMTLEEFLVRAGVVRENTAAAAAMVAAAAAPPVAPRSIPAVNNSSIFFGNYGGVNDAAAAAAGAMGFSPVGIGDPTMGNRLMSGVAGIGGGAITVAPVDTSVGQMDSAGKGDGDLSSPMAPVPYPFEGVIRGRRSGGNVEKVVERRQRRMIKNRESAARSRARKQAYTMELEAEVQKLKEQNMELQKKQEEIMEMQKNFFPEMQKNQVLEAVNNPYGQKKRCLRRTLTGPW
Described as above. The note with it: protein: recombinant; tags: His (pCold vector); chain copies: 2; label: biotin.

B1: Probe 1 (dsDNA)
DNA 1: ATCGTGTTCTTCGCCGGCACGTGGTAATGGGCAGAATCTCC
DNA 2: GGAGATTCTGCCCATTACCACGTGCCGGCGAAGAACACGAT
For the molecule B1, the binding result with OSBZ8 and with TRAB1 was “no binding” in each case.

B2: Mutant-12 (dsDNA)
DNA 1: AGTCAAATTAGCCAGGCGACCAGCTAAAACCGC
DNA 2: GCGGTTTTAGCTGGTCGCCTGGCTAATTTGACT
Consider B2, for which the binding result with OSBZ8 is “no binding”.

B3: Probe 11 (dsDNA)
DNA 1: AATAAAAATGGTGGGACCCACGTGGGCCCCACAAGTCATTCT
DNA 2: AGAATGACTTGTGGGGCCCACGTGGGTCCCACCATTTTTATT
In the case of B3, in the data set with TRAB1, the binding result is “no binding”.

B4: Probe 14 (dsDNA)
DNA 1: AGGAAAAATGGTGGGACCCACGTGGGCCCCACATGTCATCCT
DNA 2: AGGATGACATGTGGGGCCCACGTGGGTCCCACCATTTTTCCT
On to B4, for which the binding result in the data set with TRAB1 was “no binding”.

B5: Mutant-13 (dsDNA)
DNA 1: CTTCATCTGGACACTGGGCGCTTGGCAAGTTGA
DNA 2: TCAACTTGCCAAGCGCCCAGTGTCCAGATGAAG
For the molecule B5, the binding result with OSBZ8 is “no binding”.

B6: Probe 5 (dsDNA)
DNA 1: ATAAGACAAGTGGTCAAACGTTGCAAACAAAAACTCAAAA
DNA 2: TTTTGAGTTTTTGTTTGCAACGTTTGACCACTTGTCTTAT
Take B6: the binding result with OSBZ8 and with TRAB1 was “no binding” in each case.

B7: Probe 9 (dsDNA)
DNA 1: TGTGGTTTTGGCTGACGTGGCGCCTACGTGGCGAATTTGACTC
DNA 2: GAGTCAAATTCGCCACGTAGGCGCCACGTCAGCCAAAACCACA
Consider B7, for which the binding result in the data set with TRAB1 is listed as “no binding”.

B8: Probe 7 (dsDNA)
DNA 1: TCCTACATACCCTCAGCACGTAAAGCGAGAAGTTTTATCT
DNA 2: AGATAAAACTTCTCGCTTTACGTGCTGAGGGTATGTAGGA
As to B8, the binding result in the data set with OSBZ8 and in the data set with TRAB1 was “no binding” in each case.

B9: Mutant-9 (dsDNA)
DNA 1: TGTGGTTTTGGCTGGGCGCCTGGCGAATTTGACTC
DNA 2: GAGTCAAATTCGCCAGGCGCCCAGCCAAAACCACA
Regarding B9, the binding result in the data set with OSBZ8 is “no binding”.

B10: Probe 6 (dsDNA)
DNA 1: TGTGGGACGGAGGGAGTACGTCACAAAAATTATGTTACAA
DNA 2: TTGTAACATAATTTTTGTGACGTACTCCCTCCGTCCCACA
With B10, the binding result in the data set with OSBZ8 and in the data set with TRAB1 was “no binding” in each case.

B11: Probe 13 (dsDNA)
DNA 1: CTTCATCTGACGTGACACTGACGTGGCGCTTACGTGGCAAGTTGA
DNA 2: TCAACTTGCCACGTAAGCGCCACGTCAGTGTCACGTCAGATGAAG
Take B11: the binding result in the data set with OSBZ8 is reported as “binds”; in the data set with TRAB1 it was “no binding”.

B12: Probe 8 (dsDNA)
DNA 1: GATAAGATTGCTCAGCAACGTAATCTTCATAGATCCACTT
DNA 2: AAGTGGATCTATGAAGATTACGTTGCTGAGCAATCTTATC
For B12, the binding result in the data set with OSBZ8 and with TRAB1 was “no binding” throughout.

B13: Probe 4 (dsDNA)
DNA 1: TTGAGTTTTTGCTTGCAACGTTTGACCACTCGTCTTATTC
DNA 2: GAATAAGACGAGTGGTCAAACGTTGCAAGCAAAAACTCAA
Take B13: the binding result with OSBZ8 and with TRAB1 was “no binding” throughout.

B14: Probe 10 (dsDNA)
DNA 1: TCTTCATCTGACGTGGCATTGATGTGGTGCTTACGTGGCACTTCGA
DNA 2: TCGAAGTGCCACGTAAGCACCACATCAATGCCACGTCAGATGAAGA
As to B14, the binding result with TRAB1 is “no binding”.

B15: Mutant-10 (dsDNA)
DNA 1: TCTTCATCTGGGCATTGATGTGGTGCTTGGCACTTCGA
DNA 2: TCGAAGTGCCAAGCACCACATCAATGCCCAGATGAAGA
Take B15: the binding result with OSBZ8 is on record as “no binding”.

B16: Probe 12 (dsDNA)
DNA 1: AGTCAAATTAGCCACGTAGGCGACACGTCAGCTAAAACCGC
DNA 2: GCGGTTTTAGCTGACGTGTCGCCTACGTGGCTAATTTGACT
In the case of B16, the binding result in the data set with TRAB1 was “no binding”.

B17: Probe 2 (dsDNA)
DNA 1: AGCTTTGAAACATTTTCCACGTTTCATGAACCAACACTCAAT
DNA 2: ATTGAGTGTTGGTTCATGAAACGTGGAAAATGTTTCAAAGCT
Regarding B17, the binding result with OSBZ8 and with TRAB1 was “no binding” each time.

B18: Probe 3 (dsDNA)
DNA 1: GTCATTTTGAGGGGCTGACGTTTGGTGGACAGCGCAGTTT
DNA 2: AAACTGCGCTGTCCACCAAACGTCAGCCCCTCAAAATGAC
In the case of B18, the binding result with OSBZ8 and with TRAB1 was “no binding” in each case.

B19: Mutant-14 (dsDNA)
DNA 1: AGGAAAAATGGTGGGACCCGGGCCCCACATGTCATCCT
DNA 2: AGGATGACATGTGGGGCCCGGGTCCCACCATTTTTCCT
Turning to B19, the binding result in the data set with OSBZ8 is “no binding”.

B20: Mutant-11 (dsDNA)
DNA 1: AATAAAAATGGTGGGACCCGGGCCCCACAAGTCATTCT
DNA 2: AGAATGACTTGTGGGGCCCGGGTCCCACCATTTTTATT
Consider B20, for which the binding result with OSBZ8 was “no binding”.
